Measurements: patent US9176064B2, “Bisubstrate fluorescent probes for protein kinase CK2” (University of Tartu, priority 2012, dated 2015)
Where a SMILES comes first, the peptide text is derived from it. [ ]: non-standard residue; d: D form. The star is where a group is joined. X1 = O=C(CCCCCCCn1cnc2c(Br)c(Br)c(Br)c(Br)c21)*

Key:
Experiment in all cases: Kinase panel residual activity
Assay type in all cases: biochemical
Settings in all cases: compound at 1 micromolar
[1] = target: DYRK1A (Homo sapiens, UniProt Q13627)
[2] = target: T1, TAK1 (Homo sapiens, UniProt O43318)
T1 sequence (O43318 1-303 limits assumed): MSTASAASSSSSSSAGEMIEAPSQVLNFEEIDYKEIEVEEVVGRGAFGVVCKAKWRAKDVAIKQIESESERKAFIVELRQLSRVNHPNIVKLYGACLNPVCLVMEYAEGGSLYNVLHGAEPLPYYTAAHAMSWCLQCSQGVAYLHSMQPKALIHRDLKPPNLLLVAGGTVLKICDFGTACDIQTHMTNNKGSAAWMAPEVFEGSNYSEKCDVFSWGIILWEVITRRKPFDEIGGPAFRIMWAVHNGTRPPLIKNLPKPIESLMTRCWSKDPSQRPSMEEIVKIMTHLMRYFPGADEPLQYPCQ

[3] = target: S6K1 (Homo sapiens, UniProt P23443)
S6K1, sequence (P23443 whole entry, species assumed): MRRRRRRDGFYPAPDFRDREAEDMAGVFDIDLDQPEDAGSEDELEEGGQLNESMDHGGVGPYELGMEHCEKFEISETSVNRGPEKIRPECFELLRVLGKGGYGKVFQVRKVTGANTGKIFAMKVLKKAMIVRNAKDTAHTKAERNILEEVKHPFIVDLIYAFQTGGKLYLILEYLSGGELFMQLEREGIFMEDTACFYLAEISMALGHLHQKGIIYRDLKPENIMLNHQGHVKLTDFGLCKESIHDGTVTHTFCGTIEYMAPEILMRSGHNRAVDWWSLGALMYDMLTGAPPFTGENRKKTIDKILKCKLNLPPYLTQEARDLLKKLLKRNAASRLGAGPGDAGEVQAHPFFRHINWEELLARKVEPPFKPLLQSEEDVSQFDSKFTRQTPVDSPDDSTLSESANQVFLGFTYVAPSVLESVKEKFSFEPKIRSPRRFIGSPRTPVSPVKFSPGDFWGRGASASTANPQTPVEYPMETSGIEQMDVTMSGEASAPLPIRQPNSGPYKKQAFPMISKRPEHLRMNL

[4] = target: MARK2 (Homo sapiens, UniProt Q7KZI7)
MARK2, sequence (Q7KZI7 whole entry, species assumed): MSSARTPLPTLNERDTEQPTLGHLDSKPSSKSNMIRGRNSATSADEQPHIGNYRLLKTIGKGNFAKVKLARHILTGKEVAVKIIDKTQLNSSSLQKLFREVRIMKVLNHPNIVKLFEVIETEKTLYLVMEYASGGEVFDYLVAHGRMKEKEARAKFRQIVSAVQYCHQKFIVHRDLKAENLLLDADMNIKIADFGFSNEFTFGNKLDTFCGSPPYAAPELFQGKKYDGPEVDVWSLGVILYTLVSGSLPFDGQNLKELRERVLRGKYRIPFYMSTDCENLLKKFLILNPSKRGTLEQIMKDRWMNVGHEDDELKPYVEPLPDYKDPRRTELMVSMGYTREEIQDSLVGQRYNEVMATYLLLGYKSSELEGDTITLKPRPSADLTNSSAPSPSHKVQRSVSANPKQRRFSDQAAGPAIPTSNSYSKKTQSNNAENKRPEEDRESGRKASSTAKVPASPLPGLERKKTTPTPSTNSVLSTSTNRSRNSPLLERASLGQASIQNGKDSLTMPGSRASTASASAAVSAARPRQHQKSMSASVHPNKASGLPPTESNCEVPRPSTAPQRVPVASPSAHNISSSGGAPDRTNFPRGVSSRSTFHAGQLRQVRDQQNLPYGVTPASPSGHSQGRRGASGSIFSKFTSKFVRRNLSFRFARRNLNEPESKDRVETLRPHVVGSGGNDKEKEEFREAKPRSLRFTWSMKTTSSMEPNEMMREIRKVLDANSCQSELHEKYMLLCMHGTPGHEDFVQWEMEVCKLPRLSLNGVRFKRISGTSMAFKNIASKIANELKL

[5] = target: MARK3 (Homo sapiens, UniProt P27448)
MARK3, sequence (P27448 whole entry, species assumed): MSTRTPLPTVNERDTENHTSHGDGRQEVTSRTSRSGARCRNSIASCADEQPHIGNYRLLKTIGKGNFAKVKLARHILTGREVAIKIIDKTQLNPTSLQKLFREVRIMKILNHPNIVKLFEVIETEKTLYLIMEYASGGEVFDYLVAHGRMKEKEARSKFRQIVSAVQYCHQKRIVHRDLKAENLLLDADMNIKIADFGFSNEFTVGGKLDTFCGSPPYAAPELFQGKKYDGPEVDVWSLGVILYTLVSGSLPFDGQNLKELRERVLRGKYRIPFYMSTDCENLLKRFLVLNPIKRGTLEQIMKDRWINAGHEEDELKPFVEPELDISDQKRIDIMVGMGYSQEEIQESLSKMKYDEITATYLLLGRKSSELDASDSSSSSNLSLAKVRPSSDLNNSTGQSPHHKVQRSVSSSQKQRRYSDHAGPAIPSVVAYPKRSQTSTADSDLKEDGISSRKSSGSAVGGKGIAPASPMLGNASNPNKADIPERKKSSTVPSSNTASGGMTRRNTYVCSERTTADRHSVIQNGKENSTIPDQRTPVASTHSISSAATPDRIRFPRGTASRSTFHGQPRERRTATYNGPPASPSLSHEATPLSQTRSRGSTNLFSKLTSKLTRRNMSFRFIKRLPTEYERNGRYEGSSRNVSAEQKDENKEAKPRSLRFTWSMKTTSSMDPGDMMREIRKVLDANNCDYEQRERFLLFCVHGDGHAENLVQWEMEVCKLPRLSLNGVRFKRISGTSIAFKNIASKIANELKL

[6] = target: TESK1 (Homo sapiens, UniProt Q15569)
TESK1, sequence (Q15569 whole entry, species assumed): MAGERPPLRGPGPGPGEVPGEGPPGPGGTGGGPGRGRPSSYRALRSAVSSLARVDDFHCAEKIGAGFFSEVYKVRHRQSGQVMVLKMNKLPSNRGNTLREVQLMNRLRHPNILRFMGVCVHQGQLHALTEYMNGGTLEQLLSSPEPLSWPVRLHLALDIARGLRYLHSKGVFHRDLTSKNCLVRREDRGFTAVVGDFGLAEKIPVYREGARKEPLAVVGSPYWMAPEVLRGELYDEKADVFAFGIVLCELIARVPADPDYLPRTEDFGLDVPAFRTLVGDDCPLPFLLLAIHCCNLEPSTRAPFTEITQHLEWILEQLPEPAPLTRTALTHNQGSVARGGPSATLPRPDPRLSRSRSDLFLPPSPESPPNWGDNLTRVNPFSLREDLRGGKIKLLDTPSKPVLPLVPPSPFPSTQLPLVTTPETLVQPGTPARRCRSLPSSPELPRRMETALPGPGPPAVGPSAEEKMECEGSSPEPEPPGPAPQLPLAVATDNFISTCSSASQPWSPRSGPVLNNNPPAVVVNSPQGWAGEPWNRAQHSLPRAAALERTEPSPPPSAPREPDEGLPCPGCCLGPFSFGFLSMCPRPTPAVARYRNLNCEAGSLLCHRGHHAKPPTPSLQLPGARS

[7] = target: RSK1 (Homo sapiens, UniProt Q15418)
RSK1, sequence (Q15418 whole entry, species assumed): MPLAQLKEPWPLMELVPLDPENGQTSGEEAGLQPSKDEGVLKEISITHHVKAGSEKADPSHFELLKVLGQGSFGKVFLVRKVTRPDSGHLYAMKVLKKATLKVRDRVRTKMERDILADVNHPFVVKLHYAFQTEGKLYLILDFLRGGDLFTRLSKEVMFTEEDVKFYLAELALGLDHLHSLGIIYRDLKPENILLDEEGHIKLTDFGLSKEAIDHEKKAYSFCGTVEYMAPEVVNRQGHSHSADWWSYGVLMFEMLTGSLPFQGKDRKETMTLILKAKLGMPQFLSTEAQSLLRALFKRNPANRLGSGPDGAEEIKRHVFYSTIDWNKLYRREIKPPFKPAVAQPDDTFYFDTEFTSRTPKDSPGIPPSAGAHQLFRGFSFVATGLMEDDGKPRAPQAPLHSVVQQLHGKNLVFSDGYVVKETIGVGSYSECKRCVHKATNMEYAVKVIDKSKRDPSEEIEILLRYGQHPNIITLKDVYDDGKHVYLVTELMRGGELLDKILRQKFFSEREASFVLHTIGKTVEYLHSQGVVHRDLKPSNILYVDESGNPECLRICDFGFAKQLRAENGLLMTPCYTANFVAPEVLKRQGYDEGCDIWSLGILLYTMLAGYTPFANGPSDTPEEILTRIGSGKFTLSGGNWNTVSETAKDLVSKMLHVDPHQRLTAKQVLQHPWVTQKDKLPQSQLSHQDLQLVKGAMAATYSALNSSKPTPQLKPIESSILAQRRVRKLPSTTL

[8] = target: T2, GCK (Homo sapiens, UniProt Q12851)
T2 sequence (Q12851 1-820): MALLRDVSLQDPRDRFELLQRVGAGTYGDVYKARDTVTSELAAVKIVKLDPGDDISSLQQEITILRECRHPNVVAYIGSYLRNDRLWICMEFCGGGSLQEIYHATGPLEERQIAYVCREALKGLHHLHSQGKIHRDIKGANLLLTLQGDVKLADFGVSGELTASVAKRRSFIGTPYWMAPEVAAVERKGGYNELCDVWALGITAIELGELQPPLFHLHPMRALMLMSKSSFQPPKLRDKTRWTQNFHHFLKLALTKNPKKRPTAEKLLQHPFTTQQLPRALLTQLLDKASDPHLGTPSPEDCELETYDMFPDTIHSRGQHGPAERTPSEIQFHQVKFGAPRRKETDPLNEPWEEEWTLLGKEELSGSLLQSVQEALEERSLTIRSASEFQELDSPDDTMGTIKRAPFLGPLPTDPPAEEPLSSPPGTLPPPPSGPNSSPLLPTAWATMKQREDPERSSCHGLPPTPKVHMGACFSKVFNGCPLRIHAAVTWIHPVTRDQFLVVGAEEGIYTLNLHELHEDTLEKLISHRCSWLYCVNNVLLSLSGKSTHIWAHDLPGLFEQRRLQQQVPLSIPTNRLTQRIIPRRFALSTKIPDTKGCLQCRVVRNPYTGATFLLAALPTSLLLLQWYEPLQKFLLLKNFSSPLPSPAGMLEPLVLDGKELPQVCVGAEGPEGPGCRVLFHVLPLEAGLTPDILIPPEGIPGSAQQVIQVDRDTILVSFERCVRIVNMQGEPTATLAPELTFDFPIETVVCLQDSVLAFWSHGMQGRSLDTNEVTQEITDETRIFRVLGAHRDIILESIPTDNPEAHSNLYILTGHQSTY

[9] = target: CAMK1 (Homo sapiens, UniProt Q14012)
CAMK1, sequence (Q14012 whole entry): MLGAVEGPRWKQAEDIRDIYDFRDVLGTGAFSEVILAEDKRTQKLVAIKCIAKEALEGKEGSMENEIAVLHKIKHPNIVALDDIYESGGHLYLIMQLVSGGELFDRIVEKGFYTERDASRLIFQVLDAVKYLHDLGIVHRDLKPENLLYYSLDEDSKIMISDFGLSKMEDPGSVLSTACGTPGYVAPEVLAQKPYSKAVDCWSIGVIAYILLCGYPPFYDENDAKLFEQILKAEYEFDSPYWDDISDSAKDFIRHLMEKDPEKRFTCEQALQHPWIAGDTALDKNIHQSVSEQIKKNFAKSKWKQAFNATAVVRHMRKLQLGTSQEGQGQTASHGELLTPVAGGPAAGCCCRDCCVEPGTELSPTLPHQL

[10] = target: BRK (Homo sapiens, UniProt Q13882)
BRK, sequence (Q13882 whole entry, species assumed): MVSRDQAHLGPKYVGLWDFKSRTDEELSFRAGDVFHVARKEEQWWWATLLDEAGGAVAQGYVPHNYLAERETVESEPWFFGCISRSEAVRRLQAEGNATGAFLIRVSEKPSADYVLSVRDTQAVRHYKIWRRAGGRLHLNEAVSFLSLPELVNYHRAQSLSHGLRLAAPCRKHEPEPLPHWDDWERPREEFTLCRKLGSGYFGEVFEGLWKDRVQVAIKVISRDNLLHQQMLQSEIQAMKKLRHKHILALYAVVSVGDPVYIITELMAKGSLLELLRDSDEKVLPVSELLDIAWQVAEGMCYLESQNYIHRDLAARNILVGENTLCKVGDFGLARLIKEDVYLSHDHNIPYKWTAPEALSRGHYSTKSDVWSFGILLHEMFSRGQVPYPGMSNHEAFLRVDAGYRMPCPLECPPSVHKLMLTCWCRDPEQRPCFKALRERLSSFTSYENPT

[11] = target: T3, EPH-B2 (Homo sapiens, UniProt P29323)
T3 sequence (P29323 19-1055): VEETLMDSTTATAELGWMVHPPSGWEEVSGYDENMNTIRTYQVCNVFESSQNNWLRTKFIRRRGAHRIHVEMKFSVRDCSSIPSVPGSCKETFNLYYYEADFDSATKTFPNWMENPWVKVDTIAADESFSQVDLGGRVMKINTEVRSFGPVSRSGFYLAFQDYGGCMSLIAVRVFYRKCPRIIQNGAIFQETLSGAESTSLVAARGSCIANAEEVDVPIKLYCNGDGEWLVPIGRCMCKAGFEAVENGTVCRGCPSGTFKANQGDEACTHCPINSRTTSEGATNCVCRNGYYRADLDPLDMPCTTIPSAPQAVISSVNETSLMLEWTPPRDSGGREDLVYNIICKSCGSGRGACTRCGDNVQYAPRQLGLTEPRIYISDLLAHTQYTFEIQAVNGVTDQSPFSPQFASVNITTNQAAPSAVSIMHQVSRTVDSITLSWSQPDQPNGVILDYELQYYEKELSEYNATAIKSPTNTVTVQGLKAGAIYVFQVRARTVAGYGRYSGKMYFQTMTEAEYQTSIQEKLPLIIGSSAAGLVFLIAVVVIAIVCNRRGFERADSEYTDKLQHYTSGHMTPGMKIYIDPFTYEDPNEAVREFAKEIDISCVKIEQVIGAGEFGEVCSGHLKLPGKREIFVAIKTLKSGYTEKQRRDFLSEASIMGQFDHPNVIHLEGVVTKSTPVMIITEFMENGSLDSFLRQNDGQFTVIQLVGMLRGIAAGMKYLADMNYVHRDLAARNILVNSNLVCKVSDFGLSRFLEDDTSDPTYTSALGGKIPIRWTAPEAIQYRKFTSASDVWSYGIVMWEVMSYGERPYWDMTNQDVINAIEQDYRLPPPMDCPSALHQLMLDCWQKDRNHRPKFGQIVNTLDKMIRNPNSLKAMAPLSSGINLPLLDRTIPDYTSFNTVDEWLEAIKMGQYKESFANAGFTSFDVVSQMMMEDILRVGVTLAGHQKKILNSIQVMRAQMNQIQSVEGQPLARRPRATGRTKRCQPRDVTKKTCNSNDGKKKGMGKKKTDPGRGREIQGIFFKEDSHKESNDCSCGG

Compound `NCCCC[C@H](NC(=O)[C@H](CC(=O)O)NC(=O)[C@H](CC(=O)O)NC(=O)[C@H](CC(=O)O)NC(=O)[C@H](CC(=O)O)NC(=O)[C@H](CC(=O)O)NC(=O)[C@@H](CC(=O)O)NC(=O)CCCCCCCn1cnc2c(Br)c(Br)c(Br)c(Br)c21)C(=O)O` [TBBI-OcA-(D-Asp)-(L-Asp)5-(L-Lys)-OH] (X1-[dD]DDDDDK-OH) has a remaining activity at 1 µM [1] of 36%, a remaining activity at 1 µM [2] of 62% and a remaining activity at 1 µM [3] of 62%. It also gave a remaining activity at 1 µM [4] of 66%, a remaining activity at 1 µM [5] of 73% and a remaining activity at 1 µM [6] of 81%. The remaining activity at 1 µM [7] was 88%, the remaining activity at 1 µM [8] was 95% and the remaining activity at 1 µM [9] was 105%. It also gave a remaining activity at 1 µM [10] of 113% and a remaining activity at 1 µM [11] of 113%.
